Test results taken from US20190324031A1 (MARS, published 2019).
Numbered stars: 1 amine (or outer) side, 2 acyl side, 3 side chain; on linkers, the order of the positions; unused ones are H or OH. Square brackets hold non-standard residues; d marks the D form. Ends that are not written are not given here. γGlu = O=C(O)[C@H](CCC(=O)[*:2])N[*:1]

Biological target: T1, feline calcium-sensing receptor (fCaSR) from Felis catus, full length, expressed in HEK T-Rex/natClytin cells … (Felis catus)
T1 chain: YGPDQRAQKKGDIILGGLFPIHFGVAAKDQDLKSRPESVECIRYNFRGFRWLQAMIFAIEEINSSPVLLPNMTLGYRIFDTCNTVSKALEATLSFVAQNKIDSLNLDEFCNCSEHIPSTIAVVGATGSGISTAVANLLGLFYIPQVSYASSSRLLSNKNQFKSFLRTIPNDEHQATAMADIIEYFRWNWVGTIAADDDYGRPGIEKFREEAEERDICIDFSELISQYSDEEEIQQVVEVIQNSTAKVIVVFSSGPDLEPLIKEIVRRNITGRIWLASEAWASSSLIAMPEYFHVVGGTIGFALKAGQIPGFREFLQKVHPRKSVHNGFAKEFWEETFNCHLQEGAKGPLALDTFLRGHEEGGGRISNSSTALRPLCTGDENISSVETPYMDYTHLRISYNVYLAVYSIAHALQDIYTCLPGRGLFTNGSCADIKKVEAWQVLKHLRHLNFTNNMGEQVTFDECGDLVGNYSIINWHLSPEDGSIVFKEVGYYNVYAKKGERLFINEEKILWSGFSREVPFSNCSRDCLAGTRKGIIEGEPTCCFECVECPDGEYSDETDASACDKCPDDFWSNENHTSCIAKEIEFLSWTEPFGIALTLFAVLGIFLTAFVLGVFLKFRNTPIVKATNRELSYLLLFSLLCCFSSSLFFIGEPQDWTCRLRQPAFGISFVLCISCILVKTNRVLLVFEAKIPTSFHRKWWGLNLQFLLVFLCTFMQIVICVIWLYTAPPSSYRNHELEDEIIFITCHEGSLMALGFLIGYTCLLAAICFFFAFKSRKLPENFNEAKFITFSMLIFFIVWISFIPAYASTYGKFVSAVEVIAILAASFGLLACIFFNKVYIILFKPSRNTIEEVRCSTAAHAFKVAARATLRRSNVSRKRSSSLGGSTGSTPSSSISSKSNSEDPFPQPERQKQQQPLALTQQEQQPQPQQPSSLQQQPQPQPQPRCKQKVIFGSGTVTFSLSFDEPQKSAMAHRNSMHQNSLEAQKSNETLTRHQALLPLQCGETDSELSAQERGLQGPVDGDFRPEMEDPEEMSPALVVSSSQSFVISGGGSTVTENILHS
Experiment: cell-based or functional assay

[γGlu]-Cys-Gly (also: γ-glutamyl peptide bond between Glu side chain and Cys) [L-Glutathione (γ-Glu-Cys-Gly)]
Agonist EC50: 8.2 mM
